Measurements from paper PMC5716276 (The Journal of Cell Biology, 2017).

Target: T1, Strep lyspersin (subunit of recombinant BORCΔBLOC-1) (UniProt Q96GS4 1-357)
T1 sequence: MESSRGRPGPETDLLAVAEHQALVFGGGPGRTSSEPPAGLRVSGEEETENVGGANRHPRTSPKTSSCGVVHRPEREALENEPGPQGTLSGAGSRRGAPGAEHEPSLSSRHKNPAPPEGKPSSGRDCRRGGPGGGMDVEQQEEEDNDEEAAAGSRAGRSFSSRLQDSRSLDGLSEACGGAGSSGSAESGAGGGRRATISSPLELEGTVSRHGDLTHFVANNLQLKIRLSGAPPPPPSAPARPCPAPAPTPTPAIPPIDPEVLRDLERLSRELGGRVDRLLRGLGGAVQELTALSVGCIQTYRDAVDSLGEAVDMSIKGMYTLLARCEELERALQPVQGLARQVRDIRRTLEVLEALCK
Assay: cross-linking

binding result: binds
B1: KxDL1 (subunit of recombinant BORCΔBLOC-1) (natural protein)
chain: MDLPDSASRVFCGRILSMVNTDDVNAIILAQKNMLDRFEKTNEMLLNFNNLSSARLQQMSERFLHHTRTLVEMKRDLDSIFRRIRTLKGKLARQHPEAFSHIPEASFLEEEDEDPIPPSTTTTIATSEQSTGSCDTSPDTVSPSLSPGFEDLSHVQPGSPAINGRSQTDDEEMTGE
